Assay results taken from publication PMC8607333, “Real-time kinetic studies of Mycobacterium tuberculosis LexA–DNA interaction” (Bioscience Reports, 2021).

T1: LexAΔ24aa (Mycobacterium tuberculosis, UniProt P9WHR7 25-236, del1-24)
T1 sequence: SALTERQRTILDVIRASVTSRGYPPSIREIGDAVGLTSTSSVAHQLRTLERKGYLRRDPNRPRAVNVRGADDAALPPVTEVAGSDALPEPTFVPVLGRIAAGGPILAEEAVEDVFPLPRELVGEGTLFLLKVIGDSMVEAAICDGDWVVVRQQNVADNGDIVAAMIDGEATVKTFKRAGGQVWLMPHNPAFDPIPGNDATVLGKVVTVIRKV

T2: LexAΔ18aa (Mycobacterium tuberculosis, UniProt P9WHR7 1-236, del94-111)
T2 sequence: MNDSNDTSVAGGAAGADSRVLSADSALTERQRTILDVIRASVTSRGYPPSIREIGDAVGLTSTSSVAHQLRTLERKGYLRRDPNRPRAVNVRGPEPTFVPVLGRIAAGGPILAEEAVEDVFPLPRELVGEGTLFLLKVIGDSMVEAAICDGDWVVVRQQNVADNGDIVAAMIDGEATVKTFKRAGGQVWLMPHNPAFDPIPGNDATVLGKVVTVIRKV

T3: LexA WT (Mycobacterium tuberculosis, UniProt P9WHR7 1-236)
T3 sequence: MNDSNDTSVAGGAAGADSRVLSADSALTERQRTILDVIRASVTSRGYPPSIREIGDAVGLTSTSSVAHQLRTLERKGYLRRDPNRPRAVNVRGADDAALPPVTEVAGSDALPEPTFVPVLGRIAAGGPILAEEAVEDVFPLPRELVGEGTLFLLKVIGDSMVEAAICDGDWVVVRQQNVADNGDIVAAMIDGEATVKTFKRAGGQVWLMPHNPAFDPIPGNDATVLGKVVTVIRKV

B1: rv3074_44mer SOS box, biotinylated (dsDNA)
DNA 1: GCAGGCTGCTATTCTCGAACACATGTTCGAGACATTGACCGCGA
DNA 2: TCGCGGTCAATGTCTCGAACATGTGTTCGAGAATAGCAGCCTGC
B2: lexA_44mer SOS box, biotinylated (dsDNA)
DNA 1: CCGGAACACGCCTGTCGAACACATGTTTGATTCTTGGTGCGAAT
DNA 2: ATTCGCACCAAGAATCAAACATGTGTTCGACAGGCGTGTTCCGG
B3: recA_44mer SOS box, biotinylated (dsDNA)
DNA 1: GTGTCACACTTGAATCGAACAGGTGTTCGGCTACTGTGGTGATC
DNA 2: GATCACCACAGTAGCCGAACACCTGTTCGATTCAAGTGTGACAC
B4: dnaE2_44mer SOS box, biotinylated (dsDNA)
DNA 1: ACAACTGCGCTGTATCGAACAATTGTTCGATATACTGTGGAATG
DNA 2: CATTCCACAGTATATCGAACAATTGTTCGATACAGCGCAGTTGT
B5: dnaE2 44mer SOS box, 32P end-labeled (dsDNA)
DNA 1: B4 DNA 1
DNA 2: B4 DNA 2

Experiments:
LexAΔ24aa = molecular target: T1, LexAΔ24aa; assay: BLI; pH 7.5; BLI: 10 mM HEPES pH 7.5, 50 mM NaCl, 25 C (pH 4 buffer not stated), 1:1 global fit; EMSA: 10 mM HEPES pH 7.5, 50 mM NaCl, 30 min on ice, 3.5 nM DNA; details: protein: recombinant; tags: N-term 6xHis (pET28a); chain copies: 2; label: 5' biotin on strand 1; blunt
LexAΔ18aa [1] = molecular target: T2, LexAΔ18aa; assay: as above; details: protein: recombinant; tags: 6xHis; chain copies: 2; label: 5' biotin on strand 1; blunt
LexA WT = molecular target: T3, LexA WT; assay: BLI; pH 7.5; BLI: 10 mM HEPES pH 7.5, 50 mM NaCl, 25 C (pH 4 buffer not stated), 1:1 global fit; […]; details: protein: recombinant; tags: N-term 6xHis (pET28a); chain copies: 2; label: 5' biotin on strand 1; blunt
LexAΔ18aa [2] = molecular target: T2, LexAΔ18aa; assay: EMSA; 128 nM protein; BLI: 10 mM HEPES pH 7.5, 50 mM NaCl, 25 C (pH 4 buffer not stated), 1:1 global fit; EMSA: 10 mM HEPES pH 7.5, 50 mM NaCl, 30 min on ice, 3.5 nM DNA; details: protein: recombinant; tags: 6xHis; chain copies: 2; label: 32P end label, no biotin; blunt

| Binder | Kd (LexAΔ24aa) | Kd (LexAΔ18aa [1]) | Kd (LexA WT) | binding result (LexAΔ18aa [2]) |
| --- | --- | --- | --- | --- |
| B1 | 2.75 ± 0.04 nM | 43.5 ± 0.24 nM | 3.86 ± 0.03 nM | – |
| B2 | 2.36 ± 0.02 nM | 34.53 ± 0.25 nM | 0.98 ± 0.01 nM | – |
| B3 | 1.67 ± 0.02 nM | 32.55 ± 0.22 nM | 3.63 ± 0.02 nM | – |
| B4 | 4.94 ± 0.03 nM | – | 2.16 ± 0.01 nM | – |
| B5 | – | – | – | binds |
